PMC4655287, “Selection of Single-Stranded DNA Molecular Recognition Elements against Exotoxin A Using a Novel Decoy-SELEX Method and Sensitive Detection of Exotoxin A in Human Serum”

Target: Exotoxin A (Pseudomonas aeruginosa, UniProt P11439 26-638)
Assay: SPR; […]; 0-2 uM analyte, 1:1 kinetic model; SPR (Biacore X100): 100 mM NaCl, 20 mM Tris-HCl, 2 mM MgCl2 (pH not stated), room temperature, 5 uL/min
Conditions: protein: commercial; tags: none stated

Sequence of Exotoxin A (P11439 26-638): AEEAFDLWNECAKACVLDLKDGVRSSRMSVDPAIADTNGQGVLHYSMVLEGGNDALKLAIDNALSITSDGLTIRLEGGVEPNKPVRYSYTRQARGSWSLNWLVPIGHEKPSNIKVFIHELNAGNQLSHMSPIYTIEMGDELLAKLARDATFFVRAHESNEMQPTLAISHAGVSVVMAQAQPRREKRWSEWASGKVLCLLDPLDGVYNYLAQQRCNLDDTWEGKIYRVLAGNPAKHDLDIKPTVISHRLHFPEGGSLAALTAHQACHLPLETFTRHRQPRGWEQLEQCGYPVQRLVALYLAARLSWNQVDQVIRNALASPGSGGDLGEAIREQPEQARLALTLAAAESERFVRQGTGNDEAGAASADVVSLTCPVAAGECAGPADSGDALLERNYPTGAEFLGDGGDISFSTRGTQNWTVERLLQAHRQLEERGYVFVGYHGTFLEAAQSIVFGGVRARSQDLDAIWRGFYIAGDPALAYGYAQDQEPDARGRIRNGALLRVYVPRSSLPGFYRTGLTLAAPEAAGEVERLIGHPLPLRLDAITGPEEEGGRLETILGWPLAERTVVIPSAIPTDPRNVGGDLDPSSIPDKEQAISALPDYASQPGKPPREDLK

B1: R14.33 (ssDNA)
DNA: TGTACCGTCTGAGCGATTCGTACCATAGGGTGCTTTTCAAGGCCACACGTTAGTGTAAGCCAGTCAGTGTTAAGGAGTGC
modifications: 5' amino-C6
Kd: 4.35 µM
